Laboratory results published in patent publication US20030125311A1, “Compounds capable of binding with the cytoskeleton” (priority 2002, published 2003).

Tested on: binding sites of PREG [3H] in brain cytosol
Assay: Effects of hydrolytic enzymes on the binding of PREG [3H] in cytosol
Design: species or system rat
Details: for % of Control (binding of PREG [3H]): cytosol incubated with enzyme at 37° C. for 30 min, mean±standard error, n=3
Experimental: Proteinase K (Merck, Darmstadt, Germany) and Pronase® are dissolved at 1 mg/ml in TNM buffer containing 10 mM of Tris, 0.1M of NaCl, 3 mM of MgCl2 (pH 7.4). Deoxyribonuclease I and ribonuclease A are products of Sigma-Aldrich and are respectively adjusted to 100 IU/ml and 5 IU/ml. Phospholipase A2 (Roche Molecular Biochemicals) is diluted to 20 IU/ml in TNM.
1 ml of brain cytosol is incubated with 0.2 ml of an enzyme solution at 37° C. for 30 min. The binding activity is studied of samples (0.2 ml) which had undergone the enzyme treatment or control samples diluted with buffer only.
To study the effects of hydrolytic enzymes on the binding of PREG [^3H], samples of 1 ml of cytosol incubated with 0.2 ml of an enzyme solution at 37° C. for 30 min were used. The results obtained, expressed as % of the control incubation (cytosol diluted in a buffer) are reported in Table 1 (mean±standard error, n=3).

| Molecule | % of Control (binding of PREG [3H]) | effect on binding sites of PREG [3H] (in words) (enzyme treatment of cytosol) | binding sites of PREG [3H] destroyed (enzyme treatment of cytosol) |
| --- | --- | --- | --- |
| Ribonuclease A: hydrolytic enzyme (Sigma-Aldrich) used to treat cytosol (protein, UniProt P61823 27-150, looked up) Ribonuclease pancreatic: KETAAAKFERQHMDSSTSAASSSNYCNQMMKSRNLTKDRCKPVNTFVHESLADVQAVCSQKNVACKNGQTNCYQSYSTMSITDCRETGSSKYPNCAYKTTQANKHIIVACEGNPYVPVHFDASV | 82.4 ± 9.2% | no significant effect | – |
| Proteinase K: hydrolytic enzyme (Merck) used to treat cytosol (protein, UniProt P06873 106-384, looked up) Proteinase K: AAQTNAPWGLARISSTSPGTSTYYYDESAGQGSCVYVIDTGIEASHPEFEGRAQMVKTYYYSSRDGNGHGTHCAGTVGSRTYGVAKKTQLFGVKVLDDNGSGQYSTIIAGMDFVASDKNNRNCPKGVVASLSLGGGYSSSVNSAAARLQSSGVMVAVAAGNNNADARNYSPASEPSVCTVGASDRYDRRSSFSNYGSVLDIFGPGTSILSTWIGGSTRSISGTSMATPHVAGLAAYLMTLGKTTAASACRYIADTANKGDLSNIPFGTVNLLAYNNYQA | 42.4 ± 7.5% | – | 60% |
